In publication PMC8213764:
“And” between values parts separate entries of the source, which are not always exact repeats. Equal values may be shown once.

Molecular target: Human intelectin-1 (ITLN1) of human ileal lysates, genotype at residue 109 not told for the sentence (human (endogenous in ileum)) (UniProt Q8WWA0)
Assay: non-reducing SDS-PAGE immunoblot; human ileal lysates (150 mM NaCl, 1% Triton X-100, 0.5% sodium deoxycholate, 0.1% SDS, 50 mM Tris pH 8.0), heated at 95 °C for 30 min without 2-mercaptoethanol, gradient SDS-PAGE (4-20%), immunoblot; oligomers stable under denaturing conditions

Substance: Human intelectin-1 (ITLN1) of human ileal lysates, genotype at residue 109 not told for the sentence (from UniProt Q8WWA0 19-298) (natural protein)
- stoichiometry N: 3 and 6
